Results taken from patent publication US20060026702A1, “Phosphoinositide 3-kinase mediated inhibition of GPCRs” (DUKE UNIVERSITY, priority 2002, published 2006).

Columns and labels:
βARK1 = biological target: T1, βARK1 (Bos taurus, UniProt P21146); test: Co-immunoprecipitation and GST pull-down with purified βARK1; format: binding; conditions: sepharose beads, versus GST alone
T1 construct: gift from Dr. Robert Lefkowitz
T1 sequence (P21146 1-689): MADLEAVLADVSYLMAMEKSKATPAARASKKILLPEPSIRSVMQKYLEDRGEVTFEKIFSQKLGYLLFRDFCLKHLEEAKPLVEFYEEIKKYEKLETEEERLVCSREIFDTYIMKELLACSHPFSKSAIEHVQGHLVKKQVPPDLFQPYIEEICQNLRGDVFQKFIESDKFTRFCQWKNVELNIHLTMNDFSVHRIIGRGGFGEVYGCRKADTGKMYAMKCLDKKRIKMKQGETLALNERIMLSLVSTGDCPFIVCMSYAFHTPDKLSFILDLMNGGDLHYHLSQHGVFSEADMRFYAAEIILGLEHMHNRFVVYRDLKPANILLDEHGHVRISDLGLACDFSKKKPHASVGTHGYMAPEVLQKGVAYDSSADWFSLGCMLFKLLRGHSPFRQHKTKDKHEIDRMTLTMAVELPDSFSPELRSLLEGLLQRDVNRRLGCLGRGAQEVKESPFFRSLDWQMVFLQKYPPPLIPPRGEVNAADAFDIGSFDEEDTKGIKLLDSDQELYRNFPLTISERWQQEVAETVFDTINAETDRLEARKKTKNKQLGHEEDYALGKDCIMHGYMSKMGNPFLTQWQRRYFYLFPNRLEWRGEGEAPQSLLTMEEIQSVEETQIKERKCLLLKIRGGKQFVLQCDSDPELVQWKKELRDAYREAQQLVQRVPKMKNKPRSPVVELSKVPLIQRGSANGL
Procedure: GST Fusion Protein Expression and Pull-down Experiments—Plasmid DNAs were transformed in Escherichia coli BL21 cells. Overnight cultures were grown in LB medium supplemented with ampicillin (100 μg/ml), diluted to an A600 of 0.2 in the same medium and grown for another 1 hr at 37° C. Cultured cells were then induced with 0.1 mM isopropyl-1-thio-β-D-galactopyranoside for 2 hr. Cell were then pelleted, washed once with 1× phosphate-buffered saline and resuspended in 1× phosphate-buffered saline containing 1 mM phenylmethylsulfonyl fluoride, 2 mg/ml lysozyme and incubated for 15 min on ice. Cells were lysed by adding Triton X-100 1%. Solublized cells were incubated with DNase (300 units) for 15 min on ice and centrifuged at 13,000 rpm for 10 min.
Glutathione-Sepharose beads were added to the supernatant and gently agitated at 4° C. for 2 hr. Beads were washed three times with ice cold 1×PBS containing 1% Triton X-100 followed by three washes with cold PBS without detergent. Protein concentration was determined using a DC protein assay kit (Bio Rad), and the integrity of the fusion protein was analyzed by SDS-polyacrylamide gel electrophoresis and Coomassie staining.
The beads were spun and washed three times with binding buffer followed by three washes with binding buffer without detergent. The beads were resuspended in SDS gel loading buffer and resolved by gel electrophoresis, immunblotting and detection was carried out described later.
FLAG-HEAT and PI3KΔHEAT proteins were immunoprecipitated from cell extracts using monoclonal FLAG and HA antibodies respectively, fractionated by SDS-PAGE and analyzed by immunoblotting with βARK1 monoclonal antibody. […] Levels of expression of HEAT and PI3KΔHEAT proteins were similar (FIG. 8B, lower panel).
To investigate whether there was a direct physical interaction between the HEAT domain of PI3K and βARK1, GST-HEAT fusion protein containing 535-732 amino acid residues of PI3Kγ was produced, which including the entire HEAT domain and flanking upstream 10 amino acids and downstream 7 amino acids. […]

[1] = system: Gβγ subunits of G-protein; test: Pull-down with purified Gβγ; format: binding; conditions: GST-HEAT beads with purified Gβγ
Procedure: Subsequently, 10 μg of purified Gβγ was added to either βARK1 immobilized beads (5 pg), or the GST-HEAT fusion protein beads (5 μg), and gently rocked for 45 min at room temperature. Beads were spun down, washed in binding buffer X2 and resolved by gel electrophoresis. The presence of Gβγ was detected by immunoblotting with an antibody directed against the Gβ subunit. Purified Gβγ and βARK1 were gifts from Dr. Robert Lefkowitz.
Purified βARK1 and GST-HEAT fusion protein immobilized on sepharose beads were incubated with purified Gβγ. The beads were washed and recovered proteins were analyzed by SDS-PAGE followed by immunoblotting with a Gβ polyclonal antibody. […] Purified Gβγ was loaded as a positive control.

β2AR [2] = biological target: T2, β2AR (Homo sapiens, UniProt P07550); test: Agonist-induced β2AR phosphorylation, 32P metabolic labeling; format: cell-based; conditions: 10 μM isoproterenol 5 min; ΔPI3Kγ co-transfected
T2 construct: expressed in transfected cells; host or cells: HEK-293
Procedure: β2AR Phosphorylation—β2AR phosphorylation was performed in intact cells as previously described. Cells were transfected with plasmids containing the FLAG β2AR (2 μg) and vector DNA (2.5 μg), the FLAG β2AR (2 μg) and PI3Kγ (2.5 μg), or the β2AR (2 μg) and ΔPI3Kγ (2.5 μg). 24 hr after transfection, cells were washed and metabolically labeled for 1 hr with medium containing 100 μCi of ^32P/ml. […] Following centrifugation at 38000×g for 20 min at 4° C., the supernatants were processed for immunoprecipitation of the FLAG-β2AR as described above. Phosphorylated receptors were resolved by 10% SDS-polyacrylamide gel electrophoresis and dried gels subjected to autoradiography.
To directly test the effect of API3Kγ expression on receptor phosphorylation, ^32P; metabolic labeling was performed in HEK-293 cells transfected with plasmids containing FLAG β2AR and either the PI3Kγ or ΔPI3Kγ cDNAs. […] Thus, the effect of overexpression of ΔPI3Kγ on β2AR sequestration is not related to processes that are involved with β2AR phosphorylation or β-arrestin2 recruitment. In FIG. 6D, Agonist (ISO, 5 min) promoted β2AR phosphorylation in transfected cells after ^32Pi metabolic labeling for 1 hour prior to stimulation (upper panel). Lower panel, immunoblot for HA showing equal levels of expression of HA-PI3Kγ and HA-ΔPIβKγ. + represents HA-PI3Kγ control.

β2AR [3] = test: β2AR sequestration in HEK-293 cells by 125I-Cyanopindolol binding; format: cell-based; conditions: 1 μM isoproterenol, 0-30 min; wortmannin 100 nM 15 min before, or co-transfected ΔPI3Kγ
Procedure: Determination of β2AR Sequestration in HEK-293 Cells by ^125I-Cyanopindolol (CYP) Binding—β2AR sequestration was performed as previously described. Briefly, HEK-293 cells were plated at a density of 2.5×10^6 cells/dish and transfected the following day with plasmids containing either the β2AR (150-250 ng), β2AR (250 ng) and HEAT domain (4 μg), PI3Kγ (4.0 μg) or ΔPI3Kγ (4.0 μg) cDNAs. Twelve hours after transfection cells were split into six well Falcon plates at a density of 750,000 cells/well. […] To determine the amount of internalized receptor, 100 μl aliquots of whole cells were added to 150 μl of binding buffer (75 mM Tris-HCl, 10 mM MgCl2, 5 mM EDTA (pH 7.5)). Total binding was determined in the presence of 175 pM ^125I-CYP alone, the number of internalized receptors were determined by using 175 pM ^125I-CYP plus 100 nM CGP12177, and non-specific binding was determined using 175 pM ^125I-CYP plus 1 μM propranolol. Sequestration was calculated as the ratio of (specific receptor binding of ^125I-CYP in the presence of CGP12177)/(specific receptor binding of ^125I-CYP in the absence of CGP12177).

β-arrestin2-GFP = β-arrestin2-GFP recruitment to the membrane by confocal microscopy; format: cell-based; conditions: isoproterenol; co-expressed mutant protein
Procedure: Confocal Microscopy—Confocal microscopy was performed as previously described. […] Cells were split into 35 mm^2 dishes with glass bottoms for observation using a Zeiss LSM-510 confocal microscope. […] For analyses of the HEAT domain, HEK 293 cells were transfected with the plasmids containing cDNAs encoding either the β2AR-YFP (2 μg) or β2AR-YFP (2 μg) and HEAT domain (4 μg). Cells were plated onto glass bottom dishes for observation in the confocal microscope. […] Cells were permeablized with 0.1% Triton X-100 in phosphate-buffered saline for 20 min, incubated in 1% BSA in phosphate-buffered saline for 1 hr. Cells were washed with 1× phosphate-buffered saline and incubated with anti-HA or anti-FLAG monoclonal antibody (1:250) with 1% BSA in 1× phosphate-buffered saline for 1 hr. Cells were washed and incubated with goat anti-mouse IgG conjugated with Texas Red (1:500) (Molecular Probes) for 1 hr. Samples were visualized using single sequential line excitation filters at 488 and 568 nm and emission filter sets at 505-550 nm for GFP detection and 585 for Texas Red detection.
To exclude these possibilities cells were co-transfected with plasmids containing FLAG β2AR, β-arrestin2-GFP and either PI3Kγ or ΔPI3Kγ cDNAs, and were monitored for the recruitment of β-arrestin2-GFP using confocal microscopy. […] Marked redistribution of β-arrestin2-GFP to the membrane occurred within 2.5 minutes. […]

B1: GST-HEAT: GST fusion protein containing 535-732 amino acid residues of PI3Kγ, including the entire HEAT domain (protein)
chain: HPIALPKHQPTPDDRVRAEMPNQLRKQLEAIIATDTAEDKELLWHFRYESLKHPKAYPKLFSSVKWGQQEIVAKTYQLLARREVWDQSALDVGLTMQLLDCNFSDENVRAIAVQKLESLEDDDVLHYLLQLVQAVKFEPYHDSALARFLLKRGLRNKRIGHFLFWFLRSEIAQSRHYQQRFAVILEAYLRGCGTA
modifications: left off: a dimerising Fc or GST
notes: GST fusion protein containing 535-732 amino acid residues of PI3Kγ, including the entire HEAT domain
With B1 the “binding of purified βARK1 to immobilized fusion protein” value (βARK1) was “bound specifically” and the “association of Gβγ” value [1] was “no association”.

B2: ΔPI3Kγ: HA tagged PI3 Kp110γ mutant, Δ942-981, deletion in ATP binding site; catalytically inactive (protein)
chain: MELENYKQPVVLREDNCRRRRRMKPRSAASLSSMELIPIEFVLPTSQRKCKSPETALLHVAGHGNVEQMKAQVWLRALETSVAADFYHRLGPHHFLLLYQKKGQWYEIYDKYQVVQTLDCLRYWKATHRSPGQIHLVQRHPPSEESQAFQRQLTALIGYDVTDVSNVHDDELEFTRRGLVTPRMAEVASRDPKLYAMHPWVTSKPLPEYLWKKIANNCIFIVIHRSTTSQTIKVSPDDTPGAILQSFFTKMAKKKSLMDIPESQSEQDFVLRVCGRDEYLVGETPIKNFQWVRHCLKNGEEIHVVLDTPPDPALDEVRKEEWPLVDDCTGVTGYHEQLTIHGKDHESVFTVSLWDCDRKFRVKIRGIDIPVLPRNTDLTVFVEANIQHGQQVLCQRRTSPKPFTEEVLWNVWLEFSIKIKDLPKGALLNLQIYCGKAPALSSKASAESPSSESKGKVRLLYYVNLLLIDHRFLLRRGEYVLHMWQISGKGEDQGSFNADKLTSATNPDKENSMSISILLDNYCHPIALPKHQPTPDPEGDRVRAEMPNQLRKQLEAIIATDPLNPLTAEDKELLWHFRYESLKHPKAYPKLFSSVKWGQQEIVAKTYQLLARREVWDQSALDVGLTMQLLDCNFSDENVRAIAVQKLESLEDDDVLHYLLQLVQAVKFEPYHDSALARFLLKRGLRNKRIGHFLFWFLRSEIAQSRHYQQRFAVILEAYLRGCGTAMLHDFTQQVQVIEMLQKVTLDIKSLSAEKYDVSSQVISQLKQKLENLQNSQLPESFRVPYDPGLKAGALAIEKCKVMASKKKPLWLEFKCADPTALSNETIGIIFKHGDDLRQDMLILQILRIMESIWETESLDLCLLPYGCISTGDKIGMIEIVKDATTIAKIQQSTVGNTGAFKDEVLNHWLKEKSPTEEKFQAAVERFVYSCAGYCVATFVLGIGDRVPFVLTPDFLFVMGTSGKKTSPHFQKFQDICVKAYLALRHHTNLLIIILFSMMLMTGMPQLTSKEDIEYIRDALTVGKNEEDAKKYFLDQIEVCRDKGWTVQFNWFLHLVLGIKQGEKHSAYPYDVPDYA
In the case of B2, the “level of agonist-induced receptor phosphorylation” value (β2AR [2]) is reported as “not affected”, the “rate of β2AR sequestration” value (β2AR [3]) is reported as “significant attenuation” and the “recruitment of β-arrestin2-GFP to the receptor/membrane after agonist” value (β-arrestin2-GFP) is reported as “prompt recruitment”.
